Consider 1 substance from CN116744966A.

In this assay the target is SARS-CoV-2 spike protein (wild type) on pseudovirus (SARS-CoV-2) (UniProt P0DTC2). In words: cell-based or functional assay.

“ACE2-Ig (positive control of the pseudovirus neutralisation assay) (Fc fusion)” yielded an IC50, pseudovirus neutralisation (positive control) of 0.9 µg/mL.
